B1: LINE1-mini (parent)
chain: GGCAGAGCUCAACACAGCGUGGCAAAGUGGCUGUGGCUAGACUGCC

Variants of: B1
Assay: self-cleavage, relative activity (ratio to wild type); higher = more cleavage; in vitro, sequencing; the parent is a self-cleaving ribozyme

Variant	self-cleavage
G5U G17U	0.05
A24C G36U	0.1
G22A U34G	0.51
U28C A41U	0.45
G33U G44C	0.06
C18U U28C	1.2
G17A G30A	0.57
C13U C15U	0.13
C13A A41C	0.06
G33C	0.07
G2U U9A	0.06
C18G C42G	0.04
G17C G36A	0.09
U28G G33U	0.06
C13U G40C	0.08
G17C U28G	1.62
C8A C13A	0.67
A16C G21U	0.07
G1U U9A	0.03
A16C A25U	0.08
G5A G33C	0.09
A25U G30U	1.75
A16U G30U	0.06
C3U A24G	0.24

Variant	self-cleavage
A24U G29C	0.58
C3G C45U	0.33
G7C C13U	0.14
G7C C13A	0.11
U32A A41U	0.13
A12U U34G	0.04
G33C G36A	0.03
G22U G30U	1.03
U28A G29C	0.16
A24C	0.71
G17C G21A	1.72
C15G U28C	0.04
A26G G27U	0.94
A26G G27C	1.15
C10G A41G	0.05
C23G G36A	0.14
A6G U20A	0.04
G5C G19C	0.08
A4U G33U	0.12
A6G A41C	0.15
A6G A41U	0.1
C18A U28G	0.5
A11C A14C	0.02
G1C G2A	0.13

Variant	self-cleavage
A6C G44U	0.18
G17U G36A	0.09
G1U C8U	0.12
G1U C8G	0.06
G21A A24G	2.26
A11U U20A	0.07
A6G A11C	0.02
A39U C42A	0.1
A4G C10U	0.22
A14U U43G	0.35
G2U G5A	0.06
G2U G5U	0.02
A11U A25G	0.07
C8G G29C	0.04
C8U C37U	0.2
G17U G40U	0.06
G36C	0.1
G27C A39U	0.76
U32A G35U	0.05
A11G U28G	0.02
G1C C46G	0.3
G29C U32C	0.7
A25U U32A	0.04
A12G U34A	0.03

Variant	self-cleavage
C18A A24C	0.18
A12G G21C	0.01
A11G G17U	0.03
G2U G33C	0.02
A12U A26U	0.28
G27U C46A	1.11
C3A A41U	0.32
G1C C13G	0.04
C15A C45G	0.05
G1C G35U	0.03
G40A G44C	0.08
G36C C37A	0.1
G44C C45A	0.05
U9G A24G	0.14
A12U C15A	0.09
A12U C15U	0.1
G17C A24U	0.6
U34C C46U	0.12
C15G G29U	0.06
C8G G33C	0.04
G30C C42U	0.18
A11G G44A	0.03
G22A A25U	1.38
A6C G7A	0.18

Variant	self-cleavage
G2A G19C	0.19
C8U A24U	0.33
A4C G44A	0.16
G30A G40U	0.18
A12U G35C	0.05
A12U G35A	0.19
A6C U43G	0.03
A14G A16U	0.06
U32A U34G	0.03
A12G G35A	0.02
A14U G35U	0.12
A16U G19U	0.2
A6C A11G	0.02
A24C C37G	0.02
U28C G44U	0.34
G17A	0.19
A11C C45U	0.12
A6C G29U	0.61
G2U A11U	0.03
C13G U32C	0.07
C31G G33A	0.05
C18A U38A	0.49
A4U C10G	0.06
C8U U43A	0.08

Variant	self-cleavage
A12C G36U	0.03
A11U A16G	0.04
C18U G33U	0.05
A6U G21U	0.76
C18A U34A	0.03
C10U G29C	0.2
U34G A41U	0.17
G7U G22U	0.14
G19U C31A	0.37
U28A A39U	0.39
G35A G36A	0.17
G5U C18U	0.1
G7C C15U	0.14
A4C G22C	0.08
A12U G30U	0.58
A12U C42A	0.06
C10U A41C	0.03
U9A G30C	0.1
C8A U32C	0.23
G1A G19U	0.94
A4C A11G	0.04
G17A G19A	0.62
U20G G27U	0.25
C18G U28C	0.36

Variant	self-cleavage
A24U U34C	0.09
C37A U43C	0.05
G1C G30U	0.06
G19U G35A	0.12
G33A C46U	0.12
G2U A12G	0.02
A26U G29U	1.61
G30U U34C	0.05
A25U C46U	1.04
A25U C46A	1.01
G30U G40C	0.09
A4G U32G	0.08
A6U U28A	0.4
G35A G44A	0.1
A12C U34C	0.03
A12C G35U	0.03
C8A G27U	0.16
G1C A24G	0.29
A41G C46U	0.16
G30U C46G	1.29
U9A U34C	0.18
A14G C37A	0.07
A6C C10U	0.15
G5C A6G	0.09

Variant	self-cleavage
U34A U38A	0.17
G22A	0.81
A6G U28C	0.05
U9A C46U	0.17
C8U G35C	0.09
C10A C23A	0.06
A11G G33U	0.03
U9A C42A	0.06
U38A U43A	0.03
G29U C46U	1.51
G21U G33C	0.08
C23U C46U	1.39
G5A A14G	0.13
C3U A25C	0.52
A25U C31U	0.23
A25U C31A	0.13
U20G U32A	0.07
C8G U38A	0.06
A12G G22U	0.02
G21A G33C	0.12
G1A C3G	0.56
C23U A26G	0.88
C18G G29C	0.49
U20A C45A	0.77

Variant	self-cleavage
A11U G40C	0.02
U9A A25U	0.15
G17C G29U	0.32
G1A C31U	0.32
G19C C45U	0.79
A26U G36A	0.23
C3A A24G	0.78
G19U A26C	0.61
U9G G17C	0.1
A26G U28C	1.18
A14C C45U	0.08
G17A U43C	0.05
G7U G30C	0.06
G30C G35A	0.09
G7U G19U	0.05
U9G G36U	0.12
U9G C13G	0.08
C15G C42U	0.04
A6C U9C	0.03
G1U G17U	0.06
U28G U43A	0.06
C23U U28C	1.37
U28A A41G	0.3
G1C A4G	0.07

Variant	self-cleavage
C8U C18U	0.14
G1U U38A	0.13
G2C A41C	0.12
G30C	1.63
U32G G36C	0.05
G1U G40A	0.04
C18A A41G	0.13
C23A G40A	0.14
U34A G36C	0.03
A25U G33A	0.12
C31U U34A	0.06
U28G U34G	0.23
A24U U43G	0.03
A26G C42G	0.05
G40U C45G	0.14
A6G A14U	0.05
C3A C46U	0.41
A14G G44A	0.22
C15A C23A	0.18
C15A C23U	0.14
A11C A25U	0.09
G1C A39U	0.06
G22U G29C	0.84
A12C C31A	0.03

Variant	self-cleavage
C10G G36A	0.01
C18G C46U	0.4
C3U A11G	0.03
U20C A26G	0.36
G2U A26U	0.11
C3A U43A	0.39
A14U G40U	0.11
C8U A26U	0.36
G17U A25G	0.07
G30A G35A	0.12
A39C G40A	0.08
G2C G35C	0.05
G36U U43G	0.1
G22C A25U	1.23
A16C A24U	0.11
G27C C42A	0.07
G1U G7C	0.12
C8A G35C	0.16
G19U G33U	0.13
C3A C45A	0.48
G35C G40U	0.09
G22U C42G	0.04
G19A G27C	0.53
A11C G19C	0.08

Variant	self-cleavage
C13U A16U	0.13
G30A G44C	0.56
G22C U38C	0.68
A25G	0.73
A6C G17U	0.11
G22A C37U	0.05
A24U G35C	0.09
G7A A41C	0.21
G5C G22U	0.04
G33C A39C	0.09
U20C G22U	0.4
C15A G27C	0.1
G7U U28G	0.07
G7U U28C	0.05
G27C G36U	0.05
C15G G33A	0.03
A11U U38C	0.05
C13A G30C	0.14
A12G C31A	0.16
A6C	0.71
A12C G29A	0.01
U34A G35C	0.13
G44U	0.32
U9G C42U	0.05

Variant	self-cleavage
A12C C46U	0.02
C10U U43G	0.19
A11C G35U	0.02
A11G U20C	0.03
G27A U28G	0.4
C18U C45G	0.27
A24G G44C	0.66
A14U G22C	0.27
G30A U38A	0.72
G17A C42U	0.1
G2U C46G	0.1
G27C G40A	0.12
A26C G35A	0.18
A14G C23U	0.85
G35U G40U	0.12
G35U G40C	0.06
C18G C31U	0.02
C42A	0.17
C8G U32C	0.06
G19A G40U	0.16
A12U G19C	0.32
G19A G44C	0.48
G19A G44U	0.51
C3A A14G	0.61

Variant	self-cleavage
A6G G7U	0.05
G17A U38A	0.21
C3U G22A	0.34
C31G A39U	0.06
C3U U28C	0.24
G22C C31U	0.26
C37U	0.07
G7C A25G	0.06
G5A	0.16
U28G C46A	1.1
G21C G40U	0.15
A12C G22C	0.02
A4U C46G	0.12
G21U A41U	0.9
U9C A39U	0.05
C15A G19A	0.06
G2U G22A	0.11
G5A G29A	0.1
U20A A25C	0.61
G1C G33U	0.04
G33C U43G	0.01
U20A G36C	0.07

Source: the RNAGym collection of RNA variant scans (doi:10.7554/elife.90254)
